Measurements as given in patent publication US20230381350A1 (PRECIRIX N V, published 2023).
Substitutions are numbered along the chain they refer to. Names and notes keep the numbering of the source.

What was measured:
[1] = biological target: T1, murine FAP expressed on cells (murine, UniProt P97321 1-761); assay: saturation binding of 99mTc-labelled VHH on murine FAP-expressing HEK-293 cells
T1 construct: also called murine FAP cell surface protein
T1 sequence: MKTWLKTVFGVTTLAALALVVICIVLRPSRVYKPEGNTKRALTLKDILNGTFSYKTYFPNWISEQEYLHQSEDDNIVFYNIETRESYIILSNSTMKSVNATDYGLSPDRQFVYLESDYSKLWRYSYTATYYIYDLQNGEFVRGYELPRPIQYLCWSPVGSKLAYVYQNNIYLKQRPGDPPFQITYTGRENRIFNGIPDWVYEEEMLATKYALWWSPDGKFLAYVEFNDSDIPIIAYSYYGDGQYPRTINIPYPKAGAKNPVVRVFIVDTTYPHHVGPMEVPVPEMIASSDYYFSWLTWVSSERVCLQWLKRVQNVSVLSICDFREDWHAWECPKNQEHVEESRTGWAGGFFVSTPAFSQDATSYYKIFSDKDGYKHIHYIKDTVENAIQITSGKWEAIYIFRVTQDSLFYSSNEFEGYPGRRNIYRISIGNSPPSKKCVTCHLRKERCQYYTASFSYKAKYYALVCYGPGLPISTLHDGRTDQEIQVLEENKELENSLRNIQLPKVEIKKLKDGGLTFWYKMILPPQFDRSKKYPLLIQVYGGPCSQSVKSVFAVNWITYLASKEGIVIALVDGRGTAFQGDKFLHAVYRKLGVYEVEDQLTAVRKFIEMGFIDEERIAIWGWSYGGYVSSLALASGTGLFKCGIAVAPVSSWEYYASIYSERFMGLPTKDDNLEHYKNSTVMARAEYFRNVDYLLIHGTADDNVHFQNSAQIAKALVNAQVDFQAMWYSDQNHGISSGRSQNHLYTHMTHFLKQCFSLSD
Method: (§1) Next, the different cell lines were incubated with serial dilutions with concentrations ranging from 0 to 300 nM of the different ^99mTc-labelled His₆-tagged VHHs. A 100-fold excess of the corresponding unlabeled VHH was added in parallel to saturate the human or murine FAP proteins on the cancer cell surface, to assess non-specific binding. The resulting EC50 values for each of the VHHs are depicted in Table 8. […] We confirmed that ^99mTc-labeled VHH B4 only binds murine FAP cell surface protein, while VHH B3 only binds human FAP cell surface molecules in vitro.

[2] = biological target: T2, human FAP expressed on cells (human, UniProt Q12884 1-760); assay: saturation binding of 99mTc-labelled VHH on human FAP-expressing GM05389 cells
T2 construct: also called human FAP cell surface protein; human FAP receptor
T2 sequence: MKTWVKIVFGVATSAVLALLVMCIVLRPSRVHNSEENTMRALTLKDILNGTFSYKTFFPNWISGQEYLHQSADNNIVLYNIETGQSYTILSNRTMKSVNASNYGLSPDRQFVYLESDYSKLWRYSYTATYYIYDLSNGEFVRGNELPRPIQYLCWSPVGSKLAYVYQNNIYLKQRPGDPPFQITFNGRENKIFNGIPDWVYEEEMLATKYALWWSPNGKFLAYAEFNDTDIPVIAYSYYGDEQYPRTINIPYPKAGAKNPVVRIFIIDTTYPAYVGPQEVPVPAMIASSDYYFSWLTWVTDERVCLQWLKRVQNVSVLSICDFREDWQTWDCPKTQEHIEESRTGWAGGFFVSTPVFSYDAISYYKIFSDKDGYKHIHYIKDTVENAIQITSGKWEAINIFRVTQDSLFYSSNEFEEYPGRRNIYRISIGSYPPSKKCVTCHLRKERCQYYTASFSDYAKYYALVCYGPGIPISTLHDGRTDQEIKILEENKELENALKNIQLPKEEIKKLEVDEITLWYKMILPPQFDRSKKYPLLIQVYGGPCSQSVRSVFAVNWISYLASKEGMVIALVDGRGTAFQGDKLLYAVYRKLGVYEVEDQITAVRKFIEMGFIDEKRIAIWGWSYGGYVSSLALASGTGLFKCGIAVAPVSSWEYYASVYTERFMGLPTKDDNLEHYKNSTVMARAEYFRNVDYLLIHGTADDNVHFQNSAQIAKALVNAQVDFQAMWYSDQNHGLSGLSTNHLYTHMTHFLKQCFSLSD
Method: as §1

[3] = biological target: T2, human FAP expressed on cells; assay: saturation binding of 99mTc-labelled VHH on human FAP-expressing GM05389 cells (mean ± SD, n = 3)
Method: (§2) Next, we describe the in vitro and in vivo human and murine FAP binding potential of different VHHs after radiolabelling with the diagnostic radioisotope ^99mTc. […] His₆-tagged human/murine FAP-targeting VHHs were radiolabelled with the diagnostic radioisotope ^99mTc, according to the radiochemical procedure described in Example 3.
as §1

[4] = biological target: T2, human FAP expressed on cells; assay: saturation binding of 99mTc-labelled VHH on human FAP-expressing HEK-293 cells (mean ± SD, n = 3)
Method: as §2, §1

[5] = biological target: T2, human FAP expressed on cells; assay: saturation binding of 131I-SGMIB-labelled VHH on human FAP-expressing GM05389 cells; GM05389 cells
Method: (§3) In a first part, the in vitro behaviour was assessed by means of investigating their cellular binding and retention overtime. The binding potential of the resulting radioconjugates was assessed to confirm that this was not affected by the introduction of ¹³¹I-SGMIB into the amino acid sequence of the VHH. To this, human FAP-expressing GM05389 (His₆-tagged and untagged VHH B1) and human FAP-transfected HEK-293 cells (His₆-tagged and untagged VHH B1; His₆-tagged VHH B2) were incubated with serial dilutions with concentrations ranging from 0 to 33 nM of the different ¹³¹I-labelled VHHs. A 100-fold excess of the corresponding unlabeled VHH was added in parallel to saturate the human FAP receptors expressed on cancer cells, to assess non-specific binding.

[6] = biological target: T2, human FAP expressed on cells; assay: saturation binding of 131I-SGMIB-labelled VHH on human FAP-transfected HEK-293 cells; HEK-293 cells
Method: as §3

[7] = biological target: T1, murine FAP expressed on cells; assay: saturation binding of 99mTc-labelled VHH on murine FAP-expressing HEK-293 cells (mean ± SD, n = 3)
Method: as §2, §1

[8] = biological target: T3, human DPP IV recombinant protein (human, UniProt P27487 29-766); assay: ELISA, coated human DPP IV, HA-His6-tagged VHH extract, anti-HA detection
T3 construct: extracellular domain; Bought protein; also called Dipeptidyl amino-peptidase IV
T3 sequence (P27487 29-766): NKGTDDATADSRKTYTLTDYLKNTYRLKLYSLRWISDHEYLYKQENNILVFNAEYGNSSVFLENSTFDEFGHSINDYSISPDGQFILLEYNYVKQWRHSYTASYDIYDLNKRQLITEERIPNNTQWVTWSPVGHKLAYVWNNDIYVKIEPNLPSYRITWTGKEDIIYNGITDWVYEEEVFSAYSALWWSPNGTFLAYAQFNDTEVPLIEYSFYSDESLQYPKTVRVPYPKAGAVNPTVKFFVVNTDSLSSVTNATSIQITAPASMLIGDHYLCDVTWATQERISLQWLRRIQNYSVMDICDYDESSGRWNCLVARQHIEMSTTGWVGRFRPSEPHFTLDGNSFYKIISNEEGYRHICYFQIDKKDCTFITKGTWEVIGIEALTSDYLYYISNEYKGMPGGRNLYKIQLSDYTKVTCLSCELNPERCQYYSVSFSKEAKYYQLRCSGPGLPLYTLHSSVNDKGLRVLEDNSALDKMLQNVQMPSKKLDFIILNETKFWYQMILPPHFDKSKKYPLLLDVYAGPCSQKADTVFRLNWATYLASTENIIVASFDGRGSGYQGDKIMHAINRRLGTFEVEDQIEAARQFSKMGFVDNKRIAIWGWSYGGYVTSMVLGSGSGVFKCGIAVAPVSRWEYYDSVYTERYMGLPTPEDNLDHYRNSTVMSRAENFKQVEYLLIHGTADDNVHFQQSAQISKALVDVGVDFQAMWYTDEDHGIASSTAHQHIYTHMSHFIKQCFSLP
Method: (§4) The day before measurement, 0.1 μg recombinant protein at a concentration of 1 μg/mL in 100 mM NaHCO₃, pH 8.2 was coated in a 96-well ELISA plate (Nunc MaxiSorp). Per VHH clone also a blank coated well was foreseen (only buffer). The wells were overcoated with protein-free T20 (PBS) blocking buffer (Pierce). After washing with PBS, pH7.4, 0.05% Tween, VHH-containing bacterial freeze-thaw extract was added to every well. Binding of HA-His₆-tagged VHHs was detected by using mouse anti-HA.11 epitope tag (clone 16B12, Biolegend) as the primary Ab and goat anti-mouse IgG (whole molecule) alkaline phosphatase conjugate (Sigma-Aldrich) as the secondary Ab, with thorough washing with PBS, pH 7.4, 0.05% Tween in between. Signals were developed using phosphatase substrate (Sigma-Aldrich) in AP blot buffer (100 mM NaCl, 50 mM MgCl₂, 100 mM Tris, pH 9.5). The absorbance was determined at 405 nm using an absorbance microplate reader (Molecular Devices). Per clone the ratio was determined between the absorbance in the antigen-coated well versus the well without antigen.

[9] = biological target: T3, human DPP IV recombinant protein; assay: ELISA on coated recombinant protein, VHH-containing bacterial extract, anti-HA detection, signal-to-background ratio
Method: as §4

[10] = biological target: T4, human FAP recombinant protein (human, UniProt Q12884 26-760); assay: ELISA, coated human FAP recombinant protein, HA-His6-tagged VHH extract, anti-HA detection
T4 construct: The protein was biotinylated with sulfo-NHS-SS-biotin for bio-layer interferometry; also called extracellular domain of human FAP with N-terminal His6-tag
T4 sequence: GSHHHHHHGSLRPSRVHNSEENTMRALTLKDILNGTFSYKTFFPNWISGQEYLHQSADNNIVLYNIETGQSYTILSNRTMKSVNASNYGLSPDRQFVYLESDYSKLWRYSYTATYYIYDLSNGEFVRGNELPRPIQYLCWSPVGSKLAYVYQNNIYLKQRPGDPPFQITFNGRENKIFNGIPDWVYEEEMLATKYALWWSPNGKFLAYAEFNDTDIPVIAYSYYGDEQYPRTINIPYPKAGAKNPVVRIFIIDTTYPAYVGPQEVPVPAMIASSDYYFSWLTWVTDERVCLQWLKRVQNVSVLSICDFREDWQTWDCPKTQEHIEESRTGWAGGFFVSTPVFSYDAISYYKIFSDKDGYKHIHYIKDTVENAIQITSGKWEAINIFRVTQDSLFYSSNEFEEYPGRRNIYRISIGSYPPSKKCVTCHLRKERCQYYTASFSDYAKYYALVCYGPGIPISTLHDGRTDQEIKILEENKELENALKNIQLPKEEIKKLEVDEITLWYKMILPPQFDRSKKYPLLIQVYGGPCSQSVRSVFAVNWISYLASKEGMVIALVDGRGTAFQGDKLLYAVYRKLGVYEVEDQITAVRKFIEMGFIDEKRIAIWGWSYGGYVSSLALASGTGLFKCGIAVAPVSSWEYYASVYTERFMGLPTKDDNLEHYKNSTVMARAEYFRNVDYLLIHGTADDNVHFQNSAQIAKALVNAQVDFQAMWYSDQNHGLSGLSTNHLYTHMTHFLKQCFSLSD
Method: as §4

B1: 99mTc-labeled non-targeting control VHH R3B23 (VHH)
VHH: QVQLQESGGGSVQAGGSLRLSCAASGDTGYMGWFRQAPGKEREGVAVINSDSGVGSTYYADSVKGRFTISRDNAKNTVYLQMNSLKPEDTAIYYCAAGHFSDYVSPWTWREIYRYNVWGQGTQVTVSS
modifications: 99mTc label (labelling is described at the His6-tag)
notes: also called 99mTc-R3B23
Question: Does B1 bind [1]?
Answer: no binding (tested: 0 to 300 nM)

Question: Does B1 bind [2]?
Answer: no binding (tested: 0 to 300 nM)

B2: 99mTc-labeled His6-tagged VHH B3 (VHH)
VHH: DVQLVESGGGLVQAGGSLRLSCAVSGRLFSTNAMGWYRQAPGKQRELVAGITGGDRSNYADSVKGRFTISRDNGKNTLYLQMNSLKPEDTAVYYCNFYPPIVGDYWGQGTQVTVSS
modifications: [99mTc(H2O)3(CO)3] complexed at the His6-tag
notes: also called 99mTc-B3
Question: Does B2 bind [1]?
Answer: no binding (tested: 0 to 300 nM)

Question: What about the EC50 [3] of the same binder?
Answer: 2.7 nM

Question: What about the EC50 [4] of the same binder?
Answer: 2.4 nM

B3: 131I-labeled His6-tagged VHH B1 (VHH)
VHH: DVQLVESGGGLVQPGGSLRLSCVASGRLSSSNSMAWYRQVPGKRRELVAGITGGGETNYADFVGGRFTISRDNAKNGLYLQLNGLKPEDTAAYYCNFWPPLINYWGQGTQVTVSS
modifications: [131I]SGMIB conjugated to lysine side-chain amines
notes: also called 131I-B1; His6-tagged B1
Question: Which results are given for B3?
Answer: EC50 [5]: 0.6 nM; EC50 [6]: 1.4 nM

B4: 131I-labeled untagged VHH B1 (VHH)
VHH: B3 VHH
modifications: [131I]SGMIB conjugated to lysine side-chain amines
notes: also called untagged B1; [131I]SGMIB-VHH
Question: Which results are given for B4?
Answer: EC50 [5]: 2.7 nM; EC50 [6]: 2.8 nM

B5: 99mTc-labeled His6-tagged VHH B4 (VHH)
VHH: DVQLVESGGGLVQVGGSLRLSCVASGFTFSSYYMSWVRQAPGKGLEWVASIYADGDMTYYADSVRGRFTISRDNAKNTLYLQMNSLKSEDTAVYYCAKDPLPPYHVNQGTQVTVSS
modifications: [99mTc(H2O)3(CO)3] complexed at the His6-tag
notes: also called 99mTc-B4
Question: Does B5 bind [2]?
Answer: no binding (tested: 0 to 300 nM)

Question: And the EC50 [7]?
Answer: 7.6 nM

B6: HA-His6-tagged VHH B2 (VHH)
VHH: QVQLQESGGGLVQAGGSLRLSCAVSGSISSANSMGWYRQAPGKQRDVVAGLTTGGRSHYADSVKGRFTISRDNAKNTVYLQMNSLKAEDTAVYYCNLWPPVQGYWGQGTQVTVSS
notes: also called B2 with HA-His6-tag
Question: Which signal-to-background ratio [8] does the source give for B6 here?
Answer: ~1

Question: Does B6 bind [9]?
Answer: no binding

Question: And the signal-to-background ratio [10]?
Answer: > 25

B7: 131I-labeled His6-tagged VHH B2 (VHH)
VHH: B6 VHH with Q1D, Q5V
modifications: [131I]SGMIB conjugated to lysine side-chain amines
notes: also called 131I-B2; His6-tagged B2
Question: With B7 as the binder, how does the EC50 [6] read?
Answer: 3.8 nM
